Results reported in patent publication US20180009871A1 (INTARCIA THERAPEUTICS, published 2018).
Where no end group is shown, it is not given here. [ ]: non-standard residue; d: D form. Aib = CC(C)(N)C(=O)O

B1: Compound A58 (peptide)
peptide: YSHGTFTSDYSKYLD[Aib]KRAQEFV[Aib]WLEDEPKSKSPPPS-OH
modifications: N-terminus assumed
SMILES: CC(C)C[C@H](NC(=O)[C@H](Cc1ccc(O)cc1)NC(=O)[C@H](CCCCN)NC(=O)[C@H](CO)NC(=O)[C@H](Cc1ccc(O)cc1)NC(=O)[C@H](CC(=O)O)NC(=O)[C@H](CO)NC(=O)[C@@H](NC(=O)[C@H](Cc1ccccc1)NC(=O)[C@@H](NC(=O)CNC(=O)[C@H](Cc1c[nH]cn1)NC(=O)[C@H](CO)NC(=O)[C@@H](N)Cc1ccc(O)cc1)[C@@H](C)O)[C@@H](C)O)C(=O)N[C@@H](CC(=O)O)C(=O)NC(C)(C)C(=O)N[C@@H](CCCCN)C(=O)N[C@@H](CCCNC(=N)N)C(=O)N[C@@H](C)C(=O)N[C@@H](CCC(N)=O)C(=O)N[C@@H](CCC(=O)O)C(=O)N[C@@H](Cc1ccccc1)C(=O)N[C@H](C(=O)NC(C)(C)C(=O)N[C@@H](Cc1c[nH]c2ccccc12)C(=O)N[C@@H](CC(C)C)C(=O)N[C@@H](CCC(=O)O)C(=O)N[C@@H](CC(=O)O)C(=O)N[C@@H](CCC(=O)O)C(=O)N1CCC[C@H]1C(=O)N[C@@H](CCCCN)C(=O)N[C@@H](CO)C(=O)N[C@@H](CCCCN)C(=O)N[C@@H](CO)C(=O)N1CCC[C@H]1C(=O)N1CCC[C@H]1C(=O)N1CCC[C@H]1C(=O)N[C@@H](CO)C(=O)O)C(C)C
B2: Compound A60 (peptide)
peptide: YTHGTFTSDYSKYLD[Aib]KRAQEFV[Aib]WLEDEPSSGKPPPS-OH
modifications: N-terminus assumed
SMILES: CC(C)C[C@H](NC(=O)[C@H](Cc1ccc(O)cc1)NC(=O)[C@H](CCCCN)NC(=O)[C@H](CO)NC(=O)[C@H](Cc1ccc(O)cc1)NC(=O)[C@H](CC(=O)O)NC(=O)[C@H](CO)NC(=O)[C@@H](NC(=O)[C@H](Cc1ccccc1)NC(=O)[C@@H](NC(=O)CNC(=O)[C@H](Cc1c[nH]cn1)NC(=O)[C@@H](NC(=O)[C@@H](N)Cc1ccc(O)cc1)[C@@H](C)O)[C@@H](C)O)[C@@H](C)O)C(=O)N[C@@H](CC(=O)O)C(=O)NC(C)(C)C(=O)N[C@@H](CCCCN)C(=O)N[C@@H](CCCNC(=N)N)C(=O)N[C@@H](C)C(=O)N[C@@H](CCC(N)=O)C(=O)N[C@@H](CCC(=O)O)C(=O)N[C@@H](Cc1ccccc1)C(=O)N[C@H](C(=O)NC(C)(C)C(=O)N[C@@H](Cc1c[nH]c2ccccc12)C(=O)N[C@@H](CC(C)C)C(=O)N[C@@H](CCC(=O)O)C(=O)N[C@@H](CC(=O)O)C(=O)N[C@@H](CCC(=O)O)C(=O)N1CCC[C@H]1C(=O)N[C@@H](CO)C(=O)N[C@@H](CO)C(=O)NCC(=O)N[C@@H](CCCCN)C(=O)N1CCC[C@H]1C(=O)N1CCC[C@H]1C(=O)N1CCC[C@H]1C(=O)N[C@@H](CO)C(=O)O)C(C)C
B3: Compound A62 (peptide)
peptide: YTHGTFTSDYSKYLD[Aib]KRAQEFV[Aib]WLEDEPSSGAPPPS-OH
modifications: N-terminus assumed
SMILES: CC(C)C[C@H](NC(=O)[C@H](Cc1ccc(O)cc1)NC(=O)[C@H](CCCCN)NC(=O)[C@H](CO)NC(=O)[C@H](Cc1ccc(O)cc1)NC(=O)[C@H](CC(=O)O)NC(=O)[C@H](CO)NC(=O)[C@@H](NC(=O)[C@H](Cc1ccccc1)NC(=O)[C@@H](NC(=O)CNC(=O)[C@H](Cc1c[nH]cn1)NC(=O)[C@@H](NC(=O)[C@@H](N)Cc1ccc(O)cc1)[C@@H](C)O)[C@@H](C)O)[C@@H](C)O)C(=O)N[C@@H](CC(=O)O)C(=O)NC(C)(C)C(=O)N[C@@H](CCCCN)C(=O)N[C@@H](CCCNC(=N)N)C(=O)N[C@@H](C)C(=O)N[C@@H](CCC(N)=O)C(=O)N[C@@H](CCC(=O)O)C(=O)N[C@@H](Cc1ccccc1)C(=O)N[C@H](C(=O)NC(C)(C)C(=O)N[C@@H](Cc1c[nH]c2ccccc12)C(=O)N[C@@H](CC(C)C)C(=O)N[C@@H](CCC(=O)O)C(=O)N[C@@H](CC(=O)O)C(=O)N[C@@H](CCC(=O)O)C(=O)N1CCC[C@H]1C(=O)N[C@@H](CO)C(=O)N[C@@H](CO)C(=O)NCC(=O)N[C@@H](C)C(=O)N1CCC[C@H]1C(=O)N1CCC[C@H]1C(=O)N1CCC[C@H]1C(=O)N[C@@H](CO)C(=O)O)C(C)C
B4: Compound A56 (peptide)
peptide: YSHGTFTSDYSKYLD[Aib]KRAQEFV[Aib]WLEDEPKSKAPPPS-OH
modifications: N-terminus assumed
SMILES: CC(C)C[C@H](NC(=O)[C@H](Cc1ccc(O)cc1)NC(=O)[C@H](CCCCN)NC(=O)[C@H](CO)NC(=O)[C@H](Cc1ccc(O)cc1)NC(=O)[C@H](CC(=O)O)NC(=O)[C@H](CO)NC(=O)[C@@H](NC(=O)[C@H](Cc1ccccc1)NC(=O)[C@@H](NC(=O)CNC(=O)[C@H](Cc1c[nH]cn1)NC(=O)[C@H](CO)NC(=O)[C@@H](N)Cc1ccc(O)cc1)[C@@H](C)O)[C@@H](C)O)C(=O)N[C@@H](CC(=O)O)C(=O)NC(C)(C)C(=O)N[C@@H](CCCCN)C(=O)N[C@@H](CCCNC(=N)N)C(=O)N[C@@H](C)C(=O)N[C@@H](CCC(N)=O)C(=O)N[C@@H](CCC(=O)O)C(=O)N[C@@H](Cc1ccccc1)C(=O)N[C@H](C(=O)NC(C)(C)C(=O)N[C@@H](Cc1c[nH]c2ccccc12)C(=O)N[C@@H](CC(C)C)C(=O)N[C@@H](CCC(=O)O)C(=O)N[C@@H](CC(=O)O)C(=O)N[C@@H](CCC(=O)O)C(=O)N1CCC[C@H]1C(=O)N[C@@H](CCCCN)C(=O)N[C@@H](CO)C(=O)N[C@@H](CCCCN)C(=O)N[C@@H](C)C(=O)N1CCC[C@H]1C(=O)N1CCC[C@H]1C(=O)N1CCC[C@H]1C(=O)N[C@@H](CO)C(=O)O)C(C)C
B5: Compound A59 (peptide)
peptide: YSHGTFTSDYSKYLD[Aib]KRAQEFV[Aib]WLEDEPSSKQPPPS-OH
modifications: N-terminus assumed
SMILES: CC(C)C[C@H](NC(=O)[C@H](Cc1ccc(O)cc1)NC(=O)[C@H](CCCCN)NC(=O)[C@H](CO)NC(=O)[C@H](Cc1ccc(O)cc1)NC(=O)[C@H](CC(=O)O)NC(=O)[C@H](CO)NC(=O)[C@@H](NC(=O)[C@H](Cc1ccccc1)NC(=O)[C@@H](NC(=O)CNC(=O)[C@H](Cc1c[nH]cn1)NC(=O)[C@H](CO)NC(=O)[C@@H](N)Cc1ccc(O)cc1)[C@@H](C)O)[C@@H](C)O)C(=O)N[C@@H](CC(=O)O)C(=O)NC(C)(C)C(=O)N[C@@H](CCCCN)C(=O)N[C@@H](CCCNC(=N)N)C(=O)N[C@@H](C)C(=O)N[C@@H](CCC(N)=O)C(=O)N[C@@H](CCC(=O)O)C(=O)N[C@@H](Cc1ccccc1)C(=O)N[C@H](C(=O)NC(C)(C)C(=O)N[C@@H](Cc1c[nH]c2ccccc12)C(=O)N[C@@H](CC(C)C)C(=O)N[C@@H](CCC(=O)O)C(=O)N[C@@H](CC(=O)O)C(=O)N[C@@H](CCC(=O)O)C(=O)N1CCC[C@H]1C(=O)N[C@@H](CO)C(=O)N[C@@H](CO)C(=O)N[C@@H](CCCCN)C(=O)N[C@@H](CCC(N)=O)C(=O)N1CCC[C@H]1C(=O)N1CCC[C@H]1C(=O)N1CCC[C@H]1C(=O)N[C@@H](CO)C(=O)O)C(C)C
B6: Compound A57 (peptide)
peptide: YSHGTFTSDYSKYLD[Aib]KRAQEFV[Aib]WLEDEPKSKQPPPS-OH
modifications: N-terminus assumed
SMILES: CC(C)C[C@H](NC(=O)[C@H](Cc1ccc(O)cc1)NC(=O)[C@H](CCCCN)NC(=O)[C@H](CO)NC(=O)[C@H](Cc1ccc(O)cc1)NC(=O)[C@H](CC(=O)O)NC(=O)[C@H](CO)NC(=O)[C@@H](NC(=O)[C@H](Cc1ccccc1)NC(=O)[C@@H](NC(=O)CNC(=O)[C@H](Cc1c[nH]cn1)NC(=O)[C@H](CO)NC(=O)[C@@H](N)Cc1ccc(O)cc1)[C@@H](C)O)[C@@H](C)O)C(=O)N[C@@H](CC(=O)O)C(=O)NC(C)(C)C(=O)N[C@@H](CCCCN)C(=O)N[C@@H](CCCNC(=N)N)C(=O)N[C@@H](C)C(=O)N[C@@H](CCC(N)=O)C(=O)N[C@@H](CCC(=O)O)C(=O)N[C@@H](Cc1ccccc1)C(=O)N[C@H](C(=O)NC(C)(C)C(=O)N[C@@H](Cc1c[nH]c2ccccc12)C(=O)N[C@@H](CC(C)C)C(=O)N[C@@H](CCC(=O)O)C(=O)N[C@@H](CC(=O)O)C(=O)N[C@@H](CCC(=O)O)C(=O)N1CCC[C@H]1C(=O)N[C@@H](CCCCN)C(=O)N[C@@H](CO)C(=O)N[C@@H](CCCCN)C(=O)N[C@@H](CCC(N)=O)C(=O)N1CCC[C@H]1C(=O)N1CCC[C@H]1C(=O)N1CCC[C@H]1C(=O)N[C@@H](CO)C(=O)O)C(C)C
B7: Compound A55 (peptide)
peptide: YSHGTFTSDYSKYLD[Aib]KRAQEFV[Aib]WLEDEPSSKSPPPS-OH
modifications: N-terminus assumed
SMILES: CC(C)C[C@H](NC(=O)[C@H](Cc1ccc(O)cc1)NC(=O)[C@H](CCCCN)NC(=O)[C@H](CO)NC(=O)[C@H](Cc1ccc(O)cc1)NC(=O)[C@H](CC(=O)O)NC(=O)[C@H](CO)NC(=O)[C@@H](NC(=O)[C@H](Cc1ccccc1)NC(=O)[C@@H](NC(=O)CNC(=O)[C@H](Cc1c[nH]cn1)NC(=O)[C@H](CO)NC(=O)[C@@H](N)Cc1ccc(O)cc1)[C@@H](C)O)[C@@H](C)O)C(=O)N[C@@H](CC(=O)O)C(=O)NC(C)(C)C(=O)N[C@@H](CCCCN)C(=O)N[C@@H](CCCNC(=N)N)C(=O)N[C@@H](C)C(=O)N[C@@H](CCC(N)=O)C(=O)N[C@@H](CCC(=O)O)C(=O)N[C@@H](Cc1ccccc1)C(=O)N[C@H](C(=O)NC(C)(C)C(=O)N[C@@H](Cc1c[nH]c2ccccc12)C(=O)N[C@@H](CC(C)C)C(=O)N[C@@H](CCC(=O)O)C(=O)N[C@@H](CC(=O)O)C(=O)N[C@@H](CCC(=O)O)C(=O)N1CCC[C@H]1C(=O)N[C@@H](CO)C(=O)N[C@@H](CO)C(=O)N[C@@H](CCCCN)C(=O)N[C@@H](CO)C(=O)N1CCC[C@H]1C(=O)N1CCC[C@H]1C(=O)N1CCC[C@H]1C(=O)N[C@@H](CO)C(=O)O)C(C)C

molecular target: human glucagon receptor (GCGR) (human, UniProt P47871 26-477); assay: cell-based or functional assay

Q: For YSHGTFTSDYSKYLDSARAQEFVKWLEDEPSSGKPPPS-OH [Compound A61], which “hGCGR pEC50 (cAMP)” value is on record?
A: Its value is 11.4 pEC50.

Q: How did the “hGCGR pEC50 (cAMP)” value turn out when B1 was run?
A: The value was 12.2 pEC50.

Q: With YTHGTFTSDYSKYLDSARAQEFVKWLEDEPSSGAPPPS-OH [Compound A63] as the binder, how does the “hGCGR pEC50 (cAMP)” value read?
A: The value was 10.4 pEC50.

Q: B2 was tested. Which “hGCGR pEC50 (cAMP)” value did it give?
A: The value was 11.3 pEC50.

Q: Which “hGCGR pEC50 (cAMP)” value does the source give for B3 here?
A: The value was 11.5 pEC50.

Q: How did the “hGCGR pEC50 (cAMP)” value turn out when B4 was run?
A: The value was 12.3 pEC50.

Q: B5 was tested. Which “hGCGR pEC50 (cAMP)” value did it give?
A: Its value is 12.2 pEC50.

Q: For B6, which “hGCGR pEC50 (cAMP)” value is on record?
A: Its value is 12 pEC50.

Q: B7 was tested. Which “hGCGR pEC50 (cAMP)” value did it give?
A: Its value is 12.2 pEC50.

molecular target: human GLP-1 receptor (GLP-1R) (human, UniProt P43220 24-463); assay: cell-based or functional assay
Sequence (P43220 24-463): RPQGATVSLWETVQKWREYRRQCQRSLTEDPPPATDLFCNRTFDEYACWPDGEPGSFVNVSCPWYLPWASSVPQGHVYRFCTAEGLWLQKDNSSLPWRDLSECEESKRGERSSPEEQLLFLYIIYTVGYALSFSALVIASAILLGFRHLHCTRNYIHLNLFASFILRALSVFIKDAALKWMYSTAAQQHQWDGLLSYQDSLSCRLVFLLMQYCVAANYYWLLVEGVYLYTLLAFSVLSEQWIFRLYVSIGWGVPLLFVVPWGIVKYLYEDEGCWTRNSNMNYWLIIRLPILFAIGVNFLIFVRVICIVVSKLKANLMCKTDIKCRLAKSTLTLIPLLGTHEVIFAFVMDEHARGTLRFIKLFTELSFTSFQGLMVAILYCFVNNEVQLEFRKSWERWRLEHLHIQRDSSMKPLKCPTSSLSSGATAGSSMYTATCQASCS

Q: YSHGTFTSDYSKYLDSARAQEFVKWLEDEPSSGKPPPS-OH [Compound A61] was tested. Which “hGLP1 pEC50 (cAMP)” value did it give?
A: Its value is less than 9 pEC50.

Q: How did the “hGLP1 pEC50 (cAMP)” value turn out when B1 was run?
A: Its value is less than 9 pEC50.

Q: YTHGTFTSDYSKYLDSARAQEFVKWLEDEPSSGAPPPS-OH [Compound A63] was tested. Which “hGLP1 pEC50 (cAMP)” value did it give?
A: Its value is less than 9 pEC50.

Q: Which “hGLP1 pEC50 (cAMP)” value does the source give for B2 here?
A: The value was less than 9 pEC50.

Q: With B3 as the binder, how does the “hGLP1 pEC50 (cAMP)” value read?
A: Its value is less than 9 pEC50.

Q: With B4 as the binder, how does the “hGLP1 pEC50 (cAMP)” value read?
A: The value was less than 9 pEC50.

Q: For B5, which “hGLP1 pEC50 (cAMP)” value is on record?
A: The value was less than 9 pEC50.

Q: With B6 as the binder, how does the “hGLP1 pEC50 (cAMP)” value read?
A: Its value is less than 9 pEC50.

Q: How did the “hGLP1 pEC50 (cAMP)” value turn out when B7 was run?
A: Its value is less than 9 pEC50.
